{
  "source": "paper PMC11075285",
  "about": "(2024)",
  "binders": {"B1": {"name": "hIL-6Rα on hIL-6Rα-transfected HEK293T cells (receptor)", "chain": "LAPRRCPAQEVARGVLTSLPGDSVTLTCPGVEPEDNATVHWVLRKPAAGSHPSRWAGMGRRLLLRSVQLHDSGNYSCYRAGRPAGTVHLLVDVPPEEPQLSCFRKSPLSNVVCEWGPRSTPSLTTKAVLLVRKFQNSPAEDFQEPCQYSQESQKFSCQLAVPEGDSSFYIVSMCVASSVGSKFSKTQTFQGCGILQPDPPANITVTAVARNPRWLSVTWQDPHSWNSSFYRLRFELRYRAERSKTFTTWMVKDLQHHCVIHDAWSGLRHVVQLRAQEEFGQGEWSEWSPEAMGTPWTESRSPPAENEVSTPMQALTTNKDDDNILFRDSANATSLPVQDSSSVPLPTFLVAGGSLAFGTLLCIAIVLRFKKTWKLRALKEGKTSMHPPYSLGQLVPERPRPTPVLVPLISPPVSPSSLGSDNTSSHNRPDARDPRSPYDISNTDYFFPR"}},
  "data": [
    {"binder": "B1", "values": [
      {"measurement": "Kd", "setting": "NEF108", "result": 5.3, "unit": "nM"},
      {"measurement": "Kd", "setting": "NEF163", "result": 3.5, "unit": "nM"},
      {"measurement": "Kd", "setting": "NEF172", "result": 10.9, "unit": "nM"}
    ]}
  ]
}
